Laboratory results taken from PMC5563082 (2017).
Numbering of substitutions follows the chain as printed. Where two headings read alike, the source gives them in different places. One block for each binder: values may come before it.

Key:
Assay in all cases: SPR
[1] = biological target: T1, human NL4_(ECTO) (NL4(X); Gln42-Glu602), immobilised for SPR (human, UniProt Q8N0W4-1 42-602, biotin on the Avitag (in vivo biotinylation by BirA))
T1 chain: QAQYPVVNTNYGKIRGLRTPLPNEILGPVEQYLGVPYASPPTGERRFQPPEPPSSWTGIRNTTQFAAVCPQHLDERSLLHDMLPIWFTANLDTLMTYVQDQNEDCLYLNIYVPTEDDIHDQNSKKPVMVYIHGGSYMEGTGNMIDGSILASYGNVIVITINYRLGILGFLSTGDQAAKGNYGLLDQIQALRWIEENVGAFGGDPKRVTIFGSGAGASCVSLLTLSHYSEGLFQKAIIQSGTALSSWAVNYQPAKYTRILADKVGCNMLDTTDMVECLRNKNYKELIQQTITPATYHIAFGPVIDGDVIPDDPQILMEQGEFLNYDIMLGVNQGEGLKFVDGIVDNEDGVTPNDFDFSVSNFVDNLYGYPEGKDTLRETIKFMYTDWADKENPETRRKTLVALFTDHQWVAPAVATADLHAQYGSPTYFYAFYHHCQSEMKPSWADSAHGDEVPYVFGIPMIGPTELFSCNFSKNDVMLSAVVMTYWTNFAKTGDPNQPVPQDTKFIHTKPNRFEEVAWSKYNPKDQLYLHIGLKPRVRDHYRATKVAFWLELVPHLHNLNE

[2] = biological target: T2, human NL1(–A–B)_(ECTO), biotinylated and immobilised for SPR (human, biotin on the Avitag (in vivo biotinylation by BirA))
T2 chain: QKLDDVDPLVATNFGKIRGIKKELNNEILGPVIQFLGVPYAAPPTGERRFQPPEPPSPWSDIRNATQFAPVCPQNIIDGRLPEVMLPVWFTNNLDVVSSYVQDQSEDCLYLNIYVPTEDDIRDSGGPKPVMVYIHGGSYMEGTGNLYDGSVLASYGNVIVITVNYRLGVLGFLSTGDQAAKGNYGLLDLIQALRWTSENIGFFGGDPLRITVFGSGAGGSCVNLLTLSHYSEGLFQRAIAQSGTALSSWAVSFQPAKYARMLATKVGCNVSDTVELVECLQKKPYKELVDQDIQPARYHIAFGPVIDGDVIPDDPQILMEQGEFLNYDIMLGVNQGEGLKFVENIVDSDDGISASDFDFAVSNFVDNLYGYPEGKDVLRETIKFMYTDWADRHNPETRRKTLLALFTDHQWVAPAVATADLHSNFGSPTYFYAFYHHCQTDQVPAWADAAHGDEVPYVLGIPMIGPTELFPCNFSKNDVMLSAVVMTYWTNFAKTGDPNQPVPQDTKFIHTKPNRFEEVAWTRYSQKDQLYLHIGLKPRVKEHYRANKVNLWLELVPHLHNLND

[3] = biological target: T3, human NL1(–A+B)_(ECTO), immobilised for SPR (human, biotin on the Avitag (in vivo biotinylation by BirA); N-linked glycan at Asn300)
T3 chain: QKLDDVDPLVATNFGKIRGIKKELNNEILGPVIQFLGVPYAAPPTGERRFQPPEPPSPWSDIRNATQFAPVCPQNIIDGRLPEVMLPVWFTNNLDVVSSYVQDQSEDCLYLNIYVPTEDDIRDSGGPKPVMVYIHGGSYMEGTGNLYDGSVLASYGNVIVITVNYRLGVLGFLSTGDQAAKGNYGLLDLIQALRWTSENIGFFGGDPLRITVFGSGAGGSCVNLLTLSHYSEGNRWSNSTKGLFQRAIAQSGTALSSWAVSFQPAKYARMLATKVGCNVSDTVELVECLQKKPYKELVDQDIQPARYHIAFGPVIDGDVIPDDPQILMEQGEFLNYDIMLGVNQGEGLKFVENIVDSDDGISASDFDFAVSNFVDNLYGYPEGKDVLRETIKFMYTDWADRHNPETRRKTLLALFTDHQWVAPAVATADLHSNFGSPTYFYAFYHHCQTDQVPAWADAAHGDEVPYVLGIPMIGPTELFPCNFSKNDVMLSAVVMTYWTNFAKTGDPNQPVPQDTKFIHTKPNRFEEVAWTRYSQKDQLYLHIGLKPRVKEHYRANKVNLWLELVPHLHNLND

[4] = biological target: T4, human NL1(–A+B Asn300Gln)_(ECTO), immobilised for SPR (human, biotin on the Avitag (in vivo biotinylation by BirA))
T4 chain: T3 chain with N238Q

[5] = biological target: human NL3(–A)_(ECTO) (Gln38-Asp636), immobilised for SPR (human, UniProt Q9NZ94-1 38-636, –A: nothing between Asp152 and Asp193, biotin on the Avitag (in vivo biotinylation by BirA))
[6] = biological target: T2, human NL1(–A–B)_(ECTO), biotinylated …
[7] = biological target: human NL3(–A)_(ECTO) Arg451Cys, immobilised for SPR (human, UniProt Q9NZ94-1 38-636, –A: nothing between Asp152 and Asp193 | R451C, biotin on the Avitag (in vivo biotinylation by BirA))
Chain of human NL3(–A)_(ECTO) Arg451Cys, immobilised for SPR (Q9NZ94 other isoform, or with tags, fused parts or gaps –A: nothing between Asp152 and Asp193 | R451C | R451C): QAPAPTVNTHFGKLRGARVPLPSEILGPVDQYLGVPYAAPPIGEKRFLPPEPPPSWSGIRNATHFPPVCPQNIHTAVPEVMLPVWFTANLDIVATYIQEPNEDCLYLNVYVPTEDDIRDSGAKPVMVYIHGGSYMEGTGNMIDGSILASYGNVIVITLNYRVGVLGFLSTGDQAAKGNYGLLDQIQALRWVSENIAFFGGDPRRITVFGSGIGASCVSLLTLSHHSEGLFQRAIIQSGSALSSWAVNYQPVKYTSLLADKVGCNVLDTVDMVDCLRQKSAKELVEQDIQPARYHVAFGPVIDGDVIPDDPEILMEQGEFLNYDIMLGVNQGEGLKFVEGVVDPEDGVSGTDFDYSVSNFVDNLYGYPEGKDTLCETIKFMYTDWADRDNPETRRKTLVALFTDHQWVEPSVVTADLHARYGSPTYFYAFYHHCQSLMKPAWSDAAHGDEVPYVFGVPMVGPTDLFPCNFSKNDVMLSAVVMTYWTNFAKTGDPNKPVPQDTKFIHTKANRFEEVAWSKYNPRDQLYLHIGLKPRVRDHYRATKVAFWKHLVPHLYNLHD

Chain of human NL3(–A)_(ECTO) (Gln38-Asp636), immobilised for SPR (Q9NZ94 other isoform, or with tags, fused parts or gaps –A: nothing between Asp152 and Asp193): as the sequence (Q9NZ94 other isoform, or with tags, fused parts or gaps –A: nothing between Asp152 and Asp193 | R451C | R451C) above, with C374R counted along it

- Kd [1]: 14.7 µM
- Kd [2]: 1.72 µM
- Kd [3]: 13.2 µM
- Kd [4]: 7.22 µM
- Kd [5]: 17.1 µM
- Kd [6]: 3.62 µM
B1: human MDGA1 extracellular domain (MDGA1_(ECTO); Gln19-Lys925) (domain or fragment)
chain: QGVYAPAQAQIVHAGQACVVKEDNISERVYTIREGDTLMLQCLVTGHPRPQVRWTKTAGSASDKFQETSVFNETLRIERIARTQGGRYYCKAENGVGVPAIKSIRVDVQYLDEPMLTVHQTVSDVRGNFYQEKTVFLRCTVNSNPPARFIWKRGSDTLSHSQDNGVDIYEPLYTQGETKVLKLKNLRPQDYASYTCQVSVRNVCGIPDKAITFRLTNTTAPPALKLSVNETLVVNPGENVTVQCLLTGGDPLPQLQWSHGPGPLPLGALAQGGTLSIPSVQARDSGYYNCTATNNVGNPAKKTVNLLVRSMKNATFQITPDVIKESENIQLGQDLKLSCHVDAVPQEKVTYQWFKNGKPARMSKRLLVTRNDPELPAVTSSLELIDLHFSDYGTYLCMASFPGAPVPDLSVEVNISSETVPPTISVPKGRAVVTVREGSPAELQCEVRGKPRPPVLWSRVDKEAALLPSGLPLEETPDGKLRLERVSRDMSGTYRCQTARYNGFNVRPREAQVQLNVQFPPEVEPSSQDVRQALGRPVLLRCSLLRGSPQRIASAVWRFKGQLLPPPPVVPAAAEAPDHAELRLDAVTRDSSGSYECSVSNDVGSAACLFQVSAKAYSPEFYFDTPNPTRSHKLSKNYSYVLQWTQREPDAVDPVLNYRLSIRQLNQHNAVVKAIPVRRVEKGQLLEYILTDLRVPHSYEVRLTPYTTFGAGDMASRIIHYTEPINSPNLSDNTCHFEDEKICGYTQDLTDNFDWTRQNALTQNPKRSPNTGPPTDISGTPEGYYMFIETSRPRELGDRARLVSPLYNASAKFYCVSFFYHMYGKHIGSLNLLVRSRNKGALDTHAWSLSGNKGNVWQQAHVPISPSGPFQIIFEGVRGPGYLGDIAIDDVTLKKGECPRKQTDPNK

- Kd [1]: 9.66 µM
- Kd [2]: 2.59 µM
- Kd [3]: 4.75 µM
- Kd [4]: 4.4 µM
- Kd [5]: 36.8 µM
- Kd [6]: 2.63 µM
- Kd [7]: 47.9 µM
B2: human β-neurexin-1 LNS6 domain with SS4 (β-NRX1_(LNS6)(+4)) (domain or fragment)
chain: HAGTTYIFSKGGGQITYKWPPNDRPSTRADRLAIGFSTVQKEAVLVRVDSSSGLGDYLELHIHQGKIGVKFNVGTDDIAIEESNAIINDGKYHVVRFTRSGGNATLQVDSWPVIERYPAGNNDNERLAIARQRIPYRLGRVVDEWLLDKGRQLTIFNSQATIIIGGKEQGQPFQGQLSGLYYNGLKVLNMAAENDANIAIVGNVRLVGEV

- Kd [1]: 14.4 µM
- Kd [3]: 9.63 µM
- Kd [4]: 4.03 µM
- Kd [5]: 24.9 µM
- Kd [6]: 1.69 µM
B3: human MDGA2 extracellular domain (MDGA2_(ECTO); Gln21-Lys927) (domain or fragment)
chain: QGVYAPPTVRIVHSGLACNIEEERYSERVYTIREGETLELTCLVTGHPRPQIRWTKTAGSASDRFQDSSVFNETLRITNIQRHQGGRYYCKAENGLGSPAIKSIRVDVYYLDDPVVTVHQSIGEAKEQFYYERTVFLRCVANSNPPVRYSWRRGQEVLLQGSDKGVEIYEPFFTQGETKILKLKNLRPQDYANYSCIASVRNVCNIPDKMVSFRLSNKTASPSIKLLVDDPIVVNPGEAITLVCVTTGGEPAPSLTWVRSFGTLPEKTVLNGGTLTIPAITSDDAGTYSCIANNNVGNPAKKSTNIIVRALKKGRFWITPDPYHKDDNIQIGREVKISCQVEAVPSEELTFSWFKNGRPLRSSERMVITQTDPDVSPGTTNLDIIDLKFTDFGTYTCVASLKGGGISDISIDVNISSSTVPPNLTVPQEKSPLVTREGDTIELQCQVTGKPKPIILWSRADKEVAMPDGSMQMESYDGTLRIVNVSREMSGMYRCQTSQYNGFNVKPREALVQLIVQYPPAVEPAFLEIRQGQDRSVTMSCRVLRAYPIRVLTYEWRLGNKLLRTGQFDSQEYTEYAVKSLSNENYGVYNCSIINEAGAGRCSFLVTGKAYAPEFYYDTYNPVWQNRHRVYSYSLQWTQMNPDAVDRIVAYRLGIRQAGQQRWWEQEIKINGNIQKGELITYNLTELIKPEAYEVRLTPLTKFGEGDSTIRVIKYSAPVNPHLREFHCGFEDGNICLFTQDDTDNFDWTKQSTATRNTKYTPNTGPNADRSGSKEGFYMYIETSRPRLEGEKARLLSPVFSIAPKNPYGPTNTAYCFSFFYHMYGQHIGVLNVYLRLKGQTTIENPLWSSSGNKGQRWNEAHVNIYPITSFQLIFEGIRGPGIEGDIAIDDVSIAEGECAKQDLATK

- Kd [1]: 2.49 µM
- Kd [3]: 1.16 µM
- Kd [4]: 1.09 µM
- Kd [5]: 9.48 µM
- Kd [6]: 0.64 µM
- Kd [7]: 10.8 µM
B4: human β-neurexin-1 LNS6 domain lacking SS4 (β-NRX1_(LNS6)(–4); His85-Val265) (domain or fragment)
chain: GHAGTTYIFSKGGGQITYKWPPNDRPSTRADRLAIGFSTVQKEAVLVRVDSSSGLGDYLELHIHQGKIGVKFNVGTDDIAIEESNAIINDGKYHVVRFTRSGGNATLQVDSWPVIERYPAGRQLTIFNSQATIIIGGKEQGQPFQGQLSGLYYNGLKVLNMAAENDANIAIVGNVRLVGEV
